The target in this test is MBP-linker-MPR-TM (HIV-1) (UniProt P04578). As to the kind of experiment: SEC; Superdex-200 HR 10/300, 20 mM NaCl, 20 mM Tris-HCl pH 7.5, 0.015% beta-DDM; calibrated with protein standards; protein in beta-DDM micelles. Background: Size exclusion chromatography separates by hydrodynamic size, large species first.

With “MBP-linker-MPR-TM (from UniProt P04578 649-705) (domain or fragment)”, the stoichiometry N – broadly, a count of units in the complex or per binding partner – is greater than 6.

The values above are taken from paper PMC4546420.
